According to US8722622B2, “FGF21 conjugates and anti-diabetic uses thereof” (COVX Technologies Ireland, Limited, priority 2010, dated 2014):
“And” between values parts separate entries of the source, which are not always exact repeats. Equal entries are not always repeated.

Legend:
[1] = system: Differentiated 3T3-L1 adipocytes; assay: Glucose uptake assay; assay type: cell-based
Procedure: Differentiated 3T3-L1 adipocytes were treated with compounds in the absence of serum for 24 hrs. Cells were then incubated with ^14C-2-deoxyglucose for 1 hr and glucose uptake into the cells was quantitated in Wallac 1450 MicroBeta (Trilux) instrument. Glucose uptake was expressed in counts per min (CPM). EC50 values as measurements of the potency of the compounds were obtained from the dose response curves in the assay.

[2] = system: Glut1 mRNA expression in differentiated 3T3-L1 adipocytes; assay: Glut1 Taqman assay; assay type: cell-based; settings: differentiated 3T3-L1 adipocytes, 6 hrs; read-out: EC50 in Glut1 Taqman assay
Procedure: Differentiated 3T3-L1 adipocytes were used to measure the Glut1 mRNA expression by qPCR method. Overnight serum starved day 10-14 differentiated 3T3-L1 adipocytes were treated with compounds for 6 hrs. Total RNA was extracted from these cells, and Glut1 and GAPDH mRNA expression was measured using a Quantitect Probe RT-PCR kit and running a quantitative real time PCR reaction in a Taqman machine (Applied Biosystems®). The bioactivity of the compounds was determined by a fold change in Glut1 mRNA levels normalized by the GAPDH mRNA levels from each sample. EC50 values as measurements of the potency of the compounds were obtained from the dose response curves in the assay.
3T3-L1 adipocytes were seeded at day 8 in 24-well tissue culture plates (Falcon®, Cat#353047), and incubated in DMEM complete medium (10% FBS, 2 mM L-glutamine, 1% P/S) at 37° C., 5% CO2. […] The medium was aspirated, and then RNA extracted from the cells using the RNeasy mini Kit according to the manufacturer's instructions. RNA was measured at A260 nm using the Spectramax® Plus spectrophotometer.

[3] = set-up: species or system Swiss-Webster mice; settings: mouse, in vivo
Procedure: The PK of FGF21 antibody conjugates were examined in mice after IV or SC administration. […] Antibody conjugates concentrations in serum were determined using an ELISA which captured the FGF21 portion of the antibody conjugates through a monoclonal anti-hFGF21 antibody bound to a 96-well plate. FGF21 antibody conjugates bound to the plate were detected through an anti-hFc monoclonal antibody, and concentrations were determined using a standard curve of the PK dosing solution diluted into serum-containing assay buffer. SC bioavailability was calculated as the ratio of the area-under the curve (AUC) of the SC serum concentration profile divided by the AUC of the IV serum concentration profile.

Molecule | EC50 ([1]; 3T3-L1 adipocytes, 24 hrs) | EC50 [2] | EC50 ([1]; unconjugated protein, n in brackets) | IV half-life ([3]; iv) | SC bioavailability ([3]; sc) | SC half-life ([3]; sc)
FGF21ΔH-K56-K59R-K69R-K122R: FGF21 lysine mutant, SEQ ID NO:18 (protein, listed as Homo sapiens) PIPDSSPLLQFGGQVRQRYLYTDDAQQTEAHLEIREDGTVGGAADQSPESLLQLKALRPGVIQILGVRTSRFLCQRPDGALYGSLHFDPEACSFRELLLEDGYNVYQSEAHGLPLHLPGNRSPHRDPAPRGPARFLPLPGLPPAPLEPPGILAPQPPDVGSSDPLSMVGPSQGRSPSYAS | 5.5 nM | 0.9 nM | – | – | – | –
FGF21ΔH-K56R-K59R-K69-K122R: FGF21 lysine mutant, SEQ ID NO:20 (protein, listed as Homo sapiens) PIPDSSPLLQFGGQVRQRYLYTDDAQQTEAHLEIREDGTVGGAADQSPESLLQLRALRPGVIQILGVKTSRFLCQRPDGALYGSLHFDPEACSFRELLLEDGYNVYQSEAHGLPLHLPGNRSPHRDPAPRGPARFLPLPGLPPAPLEPPGILAPQPPDVGSSDPLSMVGPSQGRSPSYAS | 5.2 nM | 1.3 nM | – | – | – | –
FGF21ΔH-K56-K59R-K69R-K122: FGF21 lysine mutant, SEQ ID NO:21 (protein, listed as Homo sapiens) PIPDSSPLLQFGGQVRQRYLYTDDAQQTEAHLEIREDGTVGGAADQSPESLLQLRALRPGVIQILGVRTSRFLCQRPDGALYGSLHFDPEACSFRELLLEDGYNVYQSEAHGLPLHLPGNKSPHRDPAPRGPARFLPLPGLPPAPLEPPGILAPQPPDVGSSDPLSMVGPSQGRSPSYAS | 1.7 nM | 2.6 nM | – | – | – | –
FGF21ΔH-L86C: FGF21 cysteine mutant, SEQ ID NO:14 (protein, listed as Homo sapiens) PIPDSSPLLQFGGQVRQRYLYTDDAQQTEAHLEIREDGTVGGAADQSPESLLQLKALKPGVIQILGVKTSRFLCQRPDGALYGSCHFDPEACSFRELLLEDGYNVYQSEAHGLPLHLPGNKSPHRDPAPRGPARFLPLPGLPPAPLEPPGILAPQPPDVGSSDPLSMVGPSQGRSPSYAS | – | – | 62 nM | – | – | –
FGF21ΔH-K56R-K59-K69R-K122R: FGF21 lysine mutant, SEQ ID NO:19 (protein, listed as Homo sapiens) PIPDSSPLLQFGGQVRQRYLYTDDAQQTEAHLEIREDGTVGGAADQSPESLLQLRALKPGVIQILGVRTSRFLCQRPDGALYGSLHFDPEACSFRELLLEDGYNVYQSEAHGLPLHLPGNRSPHRDPAPRGPARFLPLPGLPPAPLEPPGILAPQPPDVGSSDPLSMVGPSQGRSPSYAS | 0.9 nM | 0.6 nM | – | – | – | –
FGF21ΔH-Knull-H1K: FGF21 lysine-null mutant with H1K, SEQ ID NO:23 (protein, listed as Homo sapiens) KPIPDSSPLLQFGGQVRQRYLYTDDAQQTEAHLEIREDGTVGGAADQSPESLLQLRALRPGVIQILGVRTSRFLCQRPDGALYGSLHFDPEACSFRELLLEDGYNVYQSEAHGLPLHLPGNRSPHRDPAPRGPARFLPLPGLPPALPEPPGILAPQPPDVGSSDPLSMVGPSQGRSPSYAS | – | 6.4 nM and 4.3 nM | – | 16 h | 51% | 11 h
